What was measured:
clock_mouse Clock [1] = molecular target: clock_mouse Clock (UniProt O08785)
clock_mouse Clock [2] = molecular target: clock_mouse Clock (UniProt O08785); remark: listed apart in the source
clock_mouse Clock [3] = molecular target: clock_mouse Clock (UniProt O08785); remark: listed apart in the source

Sequence of clock_mouse Clock (O08785 whole entry): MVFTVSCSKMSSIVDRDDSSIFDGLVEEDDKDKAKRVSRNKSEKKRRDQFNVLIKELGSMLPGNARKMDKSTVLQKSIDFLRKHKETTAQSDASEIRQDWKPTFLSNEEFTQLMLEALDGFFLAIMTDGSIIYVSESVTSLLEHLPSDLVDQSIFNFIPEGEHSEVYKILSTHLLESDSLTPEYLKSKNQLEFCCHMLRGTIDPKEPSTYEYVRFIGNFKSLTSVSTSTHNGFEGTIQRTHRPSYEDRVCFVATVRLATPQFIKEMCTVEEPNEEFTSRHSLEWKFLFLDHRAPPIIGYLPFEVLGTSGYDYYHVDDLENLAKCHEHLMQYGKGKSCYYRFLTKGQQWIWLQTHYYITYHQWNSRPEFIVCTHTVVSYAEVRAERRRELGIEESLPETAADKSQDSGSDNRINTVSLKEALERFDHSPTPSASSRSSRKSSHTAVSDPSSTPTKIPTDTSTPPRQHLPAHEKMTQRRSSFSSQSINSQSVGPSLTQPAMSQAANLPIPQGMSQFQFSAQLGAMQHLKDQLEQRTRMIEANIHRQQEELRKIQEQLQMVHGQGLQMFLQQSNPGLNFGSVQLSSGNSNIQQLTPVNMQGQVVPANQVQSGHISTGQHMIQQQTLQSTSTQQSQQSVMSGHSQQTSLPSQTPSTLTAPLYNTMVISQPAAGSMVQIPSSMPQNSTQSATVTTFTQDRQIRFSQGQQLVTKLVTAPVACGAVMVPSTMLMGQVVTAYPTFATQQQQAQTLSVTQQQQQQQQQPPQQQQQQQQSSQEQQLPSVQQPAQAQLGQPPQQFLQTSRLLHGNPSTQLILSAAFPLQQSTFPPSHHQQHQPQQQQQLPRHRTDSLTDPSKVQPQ
Sequence of Basic helix-loop-helix ARNT-like protein 1 (Mus musculus), Q9WTL8-4 L95E;L150E;W427A (Q9WTL8 other isoform, or with tags, fused parts or gaps L95E;L150E;W427A): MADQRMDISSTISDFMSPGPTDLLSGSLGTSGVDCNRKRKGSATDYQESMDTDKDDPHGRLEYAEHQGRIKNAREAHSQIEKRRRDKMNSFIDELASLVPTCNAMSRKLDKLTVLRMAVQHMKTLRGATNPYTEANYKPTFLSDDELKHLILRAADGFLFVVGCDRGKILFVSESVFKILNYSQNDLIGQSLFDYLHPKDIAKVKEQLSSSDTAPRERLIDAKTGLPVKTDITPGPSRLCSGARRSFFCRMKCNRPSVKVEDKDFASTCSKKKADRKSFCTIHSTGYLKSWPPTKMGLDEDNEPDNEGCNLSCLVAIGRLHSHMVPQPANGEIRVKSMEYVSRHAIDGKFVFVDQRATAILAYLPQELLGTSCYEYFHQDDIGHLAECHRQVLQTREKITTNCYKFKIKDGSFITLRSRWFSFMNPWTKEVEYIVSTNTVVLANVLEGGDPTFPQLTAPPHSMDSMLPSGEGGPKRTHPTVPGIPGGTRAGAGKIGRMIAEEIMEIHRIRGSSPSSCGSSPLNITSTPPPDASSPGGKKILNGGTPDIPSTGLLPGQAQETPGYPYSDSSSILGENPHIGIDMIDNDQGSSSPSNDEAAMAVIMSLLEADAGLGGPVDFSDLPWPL
Sequence of Basic helix-loop-helix ARNT-like protein 1 (Mus musculus), Q9WTL8-4 F423R (Q9WTL8 other isoform, or with tags, fused parts or gaps F423R): as the sequence (Q9WTL8 other isoform, or with tags, fused parts or gaps L95E;L150E;W427A) above
Sequence of Basic helix-loop-helix ARNT-like protein 1 (Mus musculus), Q9WTL8-4 L150E (Q9WTL8 other isoform, or with tags, fused parts or gaps L150E): as the sequence (Q9WTL8 other isoform, or with tags, fused parts or gaps L95E;L150E;W427A) above
Sequence of Basic helix-loop-helix ARNT-like protein 1 (Mus musculus), Q9WTL8-4 W427A (Q9WTL8 other isoform, or with tags, fused parts or gaps W427A): as the sequence (Q9WTL8 other isoform, or with tags, fused parts or gaps L95E;L150E;W427A) above
Sequence of Basic helix-loop-helix ARNT-like protein 1 (Mus musculus), Q9WTL8-4 F423R;V435R (Q9WTL8 other isoform, or with tags, fused parts or gaps F423R;V435R): as the sequence (Q9WTL8 other isoform, or with tags, fused parts or gaps L95E;L150E;W427A) above
Sequence of Basic helix-loop-helix ARNT-like protein 1 (Mus musculus), Q9WTL8-4 I317D (Q9WTL8 other isoform, or with tags, fused parts or gaps I317D): as the sequence (Q9WTL8 other isoform, or with tags, fused parts or gaps L95E;L150E;W427A) above
Sequence of Basic helix-loop-helix ARNT-like protein 1 (Mus musculus), Q9WTL8-4 L95E (Q9WTL8 other isoform, or with tags, fused parts or gaps L95E): as the sequence (Q9WTL8 other isoform, or with tags, fused parts or gaps L95E;L150E;W427A) above
Sequence of Basic helix-loop-helix ARNT-like protein 1 (Mus musculus), Q9WTL8-4 V435R (Q9WTL8 other isoform, or with tags, fused parts or gaps V435R): as the sequence (Q9WTL8 other isoform, or with tags, fused parts or gaps L95E;L150E;W427A) above
Sequence of Basic helix-loop-helix ARNT-like protein 1 (Mus musculus), Q9WTL8-4 L115E (Q9WTL8 other isoform, or with tags, fused parts or gaps L115E): as the sequence (Q9WTL8 other isoform, or with tags, fused parts or gaps L95E;L150E;W427A) above

Row | effect of a mutation on the interaction (clock_mouse Clock [1]) | effect of a mutation on the interaction (clock_mouse Clock [2]) | effect of a mutation on the interaction (clock_mouse Clock [3]) | Substance
1 | decreasing interaction strength | with no effect | – | Basic helix-loop-helix ARNT-like protein 1 (Mus musculus), Q9WTL8-4 F423R
2 | disrupting interaction strength | decreasing interaction strength | – | Basic helix-loop-helix ARNT-like protein 1 (Mus musculus), Q9WTL8-4 F423R;V435R
3 | decreasing interaction strength | disrupting interaction strength | – | Basic helix-loop-helix ARNT-like protein 1 (Mus musculus), Q9WTL8-4 I317D
4 | with no effect | disrupting interaction strength | – | Basic helix-loop-helix ARNT-like protein 1 (Mus musculus), Q9WTL8-4 L95E
5 | disrupting interaction strength | disrupting interaction strength | – | Basic helix-loop-helix ARNT-like protein 1 (Mus musculus), Q9WTL8-4 L95E;L150E;W427A
6 | – | disrupting interaction strength | – | Basic helix-loop-helix ARNT-like protein 1 (Mus musculus), Q9WTL8-4 L115E
7 | – | with no effect | decreasing interaction strength | Basic helix-loop-helix ARNT-like protein 1 (Mus musculus), Q9WTL8-4 L150E
8 | disrupting interaction strength | with no effect | – | Basic helix-loop-helix ARNT-like protein 1 (Mus musculus), Q9WTL8-4 V435R
9 | with no effect | decreasing interaction strength | – | Basic helix-loop-helix ARNT-like protein 1 (Mus musculus), Q9WTL8-4 W427A

Source: IntAct's records for PubMed 22653727
